These results are taken from paper PMC2794200.

In the assay the target is GST-Trs33, bacterially expressed (S. cerevisiae) (UniProt Q99394). The assay is described as follows: pull-down.
Sequence of UniProt Q99394 (Q99394 whole entry): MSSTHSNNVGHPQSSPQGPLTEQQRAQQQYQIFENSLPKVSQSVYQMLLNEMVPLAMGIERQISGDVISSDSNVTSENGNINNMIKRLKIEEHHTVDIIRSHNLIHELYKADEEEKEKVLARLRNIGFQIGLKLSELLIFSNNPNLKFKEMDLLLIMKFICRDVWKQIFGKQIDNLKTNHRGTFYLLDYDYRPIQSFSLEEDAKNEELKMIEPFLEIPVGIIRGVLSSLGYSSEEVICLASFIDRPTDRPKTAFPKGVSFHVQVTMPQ

In the case of “Trs130-HA, bacterially expressed (from UniProt Q03660 1-1102) (natural protein)”, the percent co-precipitated worked out at 0.5%.
